Source: patent publication US20190169289A1 (Scripps Research, published 2019)

Assays:
[1] = molecular target: T1, anti-GCN4 (52SR4 scFv) sCAR with CD8 hinge; assay: flow cytometry on CD8 sCAR-T cells, switch 30 min at 4 C, detected with PE-conjugated goat anti-human kappa chain antibody, MFI
T1 construct: 273 is the protein without leader; also called sCAR (long); CD8 sCAR
Description: Cells were washed two times and analyzed using the Accuri flow cytometer (BD).

[2] = molecular target: T2, CLL1 (UniProt Q5QGZ9 1-265, limits assumed); assay: cell-based or functional assay
T2 sequence (looked up): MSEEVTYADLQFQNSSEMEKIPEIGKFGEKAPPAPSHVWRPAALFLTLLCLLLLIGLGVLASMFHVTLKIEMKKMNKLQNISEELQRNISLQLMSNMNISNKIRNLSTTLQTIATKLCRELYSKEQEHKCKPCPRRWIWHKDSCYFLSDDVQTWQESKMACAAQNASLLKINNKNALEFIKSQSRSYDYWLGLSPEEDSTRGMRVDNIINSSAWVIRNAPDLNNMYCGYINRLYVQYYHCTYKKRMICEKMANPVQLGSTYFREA

[3] = molecular target: T2, CLL1; assay: cell-based or functional assay; remark: listed apart in the source
[4] = molecular target: T3, anti-GCN4 (52SR4 scFv) sCAR with IgG4m hinge; assay: flow cytometry competition on CAR-T cells with the GCN4 CAR (SEQ ID NO. 74): 1 nM labelled GCN4 peptide (GCN4-AF488) as competitor, unlabelled peptide titrated, MFI of the labelled peptide read
T3 construct: disulfide dimer by western blot; also called short-dimeric sCAR; IgG4m sCAR
T3 chain: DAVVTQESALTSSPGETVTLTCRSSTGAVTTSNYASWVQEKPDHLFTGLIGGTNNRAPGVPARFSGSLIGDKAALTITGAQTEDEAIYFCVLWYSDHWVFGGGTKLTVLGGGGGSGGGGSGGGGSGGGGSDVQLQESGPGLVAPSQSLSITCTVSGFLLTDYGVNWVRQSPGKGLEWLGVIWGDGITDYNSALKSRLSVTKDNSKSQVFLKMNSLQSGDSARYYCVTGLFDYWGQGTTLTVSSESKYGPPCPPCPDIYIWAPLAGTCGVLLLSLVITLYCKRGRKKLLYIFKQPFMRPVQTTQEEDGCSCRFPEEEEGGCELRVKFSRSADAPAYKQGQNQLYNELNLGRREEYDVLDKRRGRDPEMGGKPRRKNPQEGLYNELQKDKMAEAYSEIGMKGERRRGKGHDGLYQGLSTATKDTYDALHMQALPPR
Description: Un-labelled peptide binding efficiency was indirectly shown by measuring the mean fluorescence intensity (MFI) staining with the labelled peptide.
Cells were then washed twice with cold PBS to remove the free labelled peptide before being analyzed using the BD Accuri flow cytometer.

B1: anti-CD19 (FMC63) Fab LCC1 switch (Fab)
light: DIQMTQTTSSLSASLGDRVTISCRASQDISKYLNWYQQKPDGTVKLLIYHTSRLHSGVPSRFSGSGSGTDYSLTISNLEQEDIATYFCQQGNTLPYTFGGGTKLEIKRTVAAPSVFIFPPSDEQLKSGTASVVCLLNNFYPREAKVQWKVDNALQSGNSQESVTEQDSGGGGSNYHLENEVARLKKLGGGGSDSTYSLSSTLTLSKADYEKHKVYACEVTHQGLSSPVTKSFNRGEC
heavy: EVKLQESGPGLVAPSQSLSVTCTVSGVSLPDYGVSWIRQPPRKGLEWLGVIWGSETTYYNSALKSRLTIIKDNSKSQVFLKMNSLQTDDTAIYYCAKHYYYGGSYAMDYWGQGTSVTVSSASTKGPSVFPLAPSSKSTSGGTAALGCLVKDYFPEPVTVSWNSGALTSGVHTFPAVLQSSGLYSLSSVVTVPSSSLGTQTYICNVNHKPSNTKVDKKVEPKSC
notes: also called anti-CD19 Fab CL1-GCN4
[1]
  EC50: 4600 pM

B2: anti-CD19 (FMC63) Fab LCCT switch (Fab)
light: DIQMTQTTSSLSASLGDRVTISCRASQDISKYLNWYQQKPDGTVKLLIYHTSRLHSGVPSRFSGSGSGTDYSLTISNLEQEDIATYFCQQGNTLPYTFGGGTKLEIKRTVAAPSVFIFPPSDEQLKSGTASVVCLLNNFYPREAKVQWKVDNALQSGNSQESVTEQDSKDSTYSLSSTLTLSKADYEKHKVYACEVTHQGLSSPVTKSFNRGECGGGGSNYHLENEVARLKKL
heavy: EVKLQESGPGLVAPSQSLSVTCTVSGVSLPDYGVSWIRQPPRKGLEWLGVIWGSETTYYNSALKSRLTIIKDNSKSQVFLKMNSLQTDDTAIYYCAKHYYYGGSYAMDYWGQGTSVTVSSASTKGPSVFPLAPSSKSTSGGTAALGCLVKDYFPEPVTVSWNSGALTSGVHTFPAVLQSSGLYSLSSVVTVPSSSLGTQTYICNVNHKPSNTKVDKKVEPKSC
[1]
  EC50: 4600 pM

B3: anti-CD19 (FMC63) Fab C1BV switch (Fab)
light: DIQMTQTTSSLSASLGDRVTISCRASQDISKYLNWYQQKPDGTVKLLIYHTSRLHSGVPSRFSGSGSGTDYSLTISNLEQEDIATYFCQQGNTLPYTFGGGTKLEIKRTVAAPSVFIFPPSDEQLKSGTASVVCLLNNFYPREAKVQWKVDNALQSGNSQESVTEQDSGGGGSNYHLENEVARLKKLGGGGSDSTYSLSSTLTLSKADYEKHKVYACEVTHQGLSSPVTKSFNRGEC
heavy: EVKLQESGPGLVAPSQSLSVTCTVSGVSLPDYGVSWIRQPPRKGLEWLGVIWGSETTYYNSALKSRLTIIKDNSKSQVFLKMNSLQTDDTAIYYCAKHYYYGGSYAMDYWGQGTSVTVSSASTKGPSVFPLAPSSNYHLENEVARLKKLSGGTAALGCLVKDYFPEPVTVSWNSGALTSGVHTFPAVLQSSGLYSLSSVVTVPSSSLGTQTYICNVNHKPSNTKVDKKVEPKSC
notes: also called BV C1
[1]
  EC50: 620 pM

B4: anti-CD19 (FMC63) Fab CTBV switch (Fab)
light: DIQMTQTTSSLSASLGDRVTISCRASQDISKYLNWYQQKPDGTVKLLIYHTSRLHSGVPSRFSGSGSGTDYSLTISNLEQEDIATYFCQQGNTLPYTFGGGTKLEIKRTVAAPSVFIFPPSDEQLKSGTASVVCLLNNFYPREAKVQWKVDNALQSGNSQESVTEQDSKDSTYSLSSTLTLSKADYEKHKVYACEVTHQGLSSPVTKSFNRGECGGGGSNYHLENEVARLKKL
heavy: EVKLQESGPGLVAPSQSLSVTCTVSGVSLPDYGVSWIRQPPRKGLEWLGVIWGSETTYYNSALKSRLTIIKDNSKSQVFLKMNSLQTDDTAIYYCAKHYYYGGSYAMDYWGQGTSVTVSSASTKGPSVFPLAPSSKSTSGGTAALGCLVKDYFPEPVTVSWNSGALTSGVHTFPAVLQSSGLYSLSSVVTVPSSSLGTQTYICNVNHKPSNTKVDKKVEPKSCGGGGSNYHLENEVARLKKL
notes: the text prints 97 & 34; also called BV CT
[1]
  EC50: 360 pM

B5: anti-CLL1 (1075.7) Fab switch C (heavy chain C terminus) (Fab, V domains shown)
VH: DIQLQESGPGLVKPSQSLSLTCSVTGYSITSAYYWNWIRQFPGNKLEWMGYISYDGRNNYNPSLKNRISITRDTSKNQFFLKLNSVTTEDTATYYCAKEGDYDVGNYYAMDYWGQGTSVTVSS
VL: ENVLTQSPAIMSASPGEKVTMTCRASSNVISSYVHWYQQRSGASPKLWIYSTSNLASGVPARFSGSGSGTSYSLTISSVEAEDAATYYCQQYSGYPLTFGAGTKLELKR
[2]
  EC50 of cytotoxicity, short hinge CAR: 4.9 pM
[3]
  EC50 of cytotoxicity, long hinge CAR: 3.3 pM

B6: anti-CLL1 (1075.7) Fab switch B (HCNT3) (Fab, V domains shown)
VH: DIQLQESGPGLVKPSQSLSLTCSVTGYSITSAYYWNWIRQFPGNKLEWMGYISYDGRNNYNPSLKNRISITRDTSKNQFFLKLNSVTTEDTATYYCAKEGDYDVGNYYAMDYWGQGTSVTVSS
VL: ENVLTQSPAIMSASPGEKVTMTCRASSNVISSYVHWYQQRSGASPKLWIYSTSNLASGVPARFSGSGSGTSYSLTISSVEAEDAATYYCQQYSGYPLTFGAGTKLELKR
[2]
  EC50 of cytotoxicity, short hinge CAR: 0.6 pM
[3]
  EC50 of cytotoxicity, long hinge CAR: 1.3 pM

B7: anti-CLL1 (1075.7) Fab bivalent switch A + B (Fab, V domains shown)
VH: DIQLQESGPGLVKPSQSLSLTCSVTGYSITSAYYWNWIRQFPGNKLEWMGYISYDGRNNYNPSLKNRISITRDTSKNQFFLKLNSVTTEDTATYYCAKEGDYDVGNYYAMDYWGQGTSVTVSS
VL: ENVLTQSPAIMSASPGEKVTMTCRASSNVISSYVHWYQQRSGASPKLWIYSTSNLASGVPARFSGSGSGTSYSLTISSVEAEDAATYYCQQYSGYPLTFGAGTKLELKR
[2]
  EC50 of cytotoxicity, short hinge CAR: 0.5 pM
[3]
  EC50 of cytotoxicity, long hinge CAR: 0.6 pM

B8: anti-CLL1 (1075.7) Fab switch A (LCNT1) (Fab, V domains shown)
VH: DIQLQESGPGLVKPSQSLSLTCSVTGYSITSAYYWNWIRQFPGNKLEWMGYISYDGRNNYNPSLKNRISITRDTSKNQFFLKLNSVTTEDTATYYCAKEGDYDVGNYYAMDYWGQGTSVTVSS
VL: ENVLTQSPAIMSASPGEKVTMTCRASSNVISSYVHWYQQRSGASPKLWIYSTSNLASGVPARFSGSGSGTSYSLTISSVEAEDAATYYCQQYSGYPLTFGAGTKLELKR
[2]
  EC50 of cytotoxicity, short hinge CAR: 1.5 pM
[3]
  EC50 of cytotoxicity, long hinge CAR: 4.1 pM

B9: anti-CD19 (FMC63) Fab HCCT switch (Fab, V domains shown)
VH: EVKLQESGPGLVAPSQSLSVTCTVSGVSLPDYGVSWIRQPPRKGLEWLGVIWGSETTYYNSALKSRLTIIKDNSKSQVFLKMNSLQTDDTAIYYCAKHYYYGGSYAMDYWGQGTSVTVSS
VL: DIQMTQTTSSLSASLGDRVTISCRASQDISKYLNWYQQKPDGTVKLLIYHTSRLHSGVPSRFSGSGSGTDYSLTISNLEQEDIATYFCQQGNTLPYTFGGGTKLEIKR
notes: also called C-terminal switch
[1]
  EC50: 11700 pM

B10: anti-CD19 (FMC63) Fab NTBV switch (Fab, V domains shown)
VH: EVKLQESGPGLVAPSQSLSVTCTVSGVSLPDYGVSWIRQPPRKGLEWLGVIWGSETTYYNSALKSRLTIIKDNSKSQVFLKMNSLQTDDTAIYYCAKHYYYGGSYAMDYWGQGTSVTVSS
VL: DIQMTQTTSSLSASLGDRVTISCRASQDISKYLNWYQQKPDGTVKLLIYHTSRLHSGVPSRFSGSGSGTDYSLTISNLEQEDIATYFCQQGNTLPYTFGGGTKLEIKR
notes: also called BV NT
[1]
  EC50: 690 pM

B11: anti-CD19 (FMC63) Fab with no grafted peptide (Fab, V domains shown)
VH: EVKLQESGPGLVAPSQSLSVTCTVSGVSLPDYGVSWIRQPPRKGLEWLGVIWGSETTYYNSALKSRLTIIKDNSKSQVFLKMNSLQTDDTAIYYCAKHYYYGGSYAMDYWGQGTSVTVSS
VL: DIQMTQTTSSLSASLGDRVTISCRASQDISKYLNWYQQKPDGTVKLLIYHTSRLHSGVPSRFSGSGSGTDYSLTISNLEQEDIATYFCQQGNTLPYTFGGGTKLEIKR
notes: also called WT; wild type anti-CD19 Fab
[1]
  binding result: no binding (tested: 10^2 nM)

B12: anti-CLL1 (1075.7) Fab switch D (light chain C terminus) (Fab)
light: ENVLTQSPAIMSASPGEKVTMTCRASSNVISSYVHWYQQRSGASPKLWIYSTSNLASGVPARFSGSGSGTSYSLTISSVEAEDAATYYCQQYSGYPLTFGAGTKLELKRAAAAPSVFIFPPSDEQLKSGTASVVCLLNNFYPREAKVQWKVDNALQSGNSQESVTEQDSKDSTYSLSSTLTLSKADYEKHKVYACEVTHQGLSSPVTKSFNRGECGGGGSNYHLENEVARLKKL
heavy: DIQLQESGPGLVKPSQSLSLTCSVTGYSITSAYYWNWIRQFPGNKLEWMGYISYDGRNNYNPSLKNRISITRDTSKNQFFLKLNSVTTEDTATYYCAKEGDYDVGNYYAMDYWGQGTSVTVSSARTKGPSVFPLAPSSKSTSGGTAALGCLVKDYFPEPVTVSWNSGALTSGVHTFPAVLQSSGLYSLSSVVTVPSSSLGTQTYICNVNHKPSNTKVDKKVEPKSC
[2]
  EC50 of cytotoxicity, short hinge CAR: 5.1 pM
[3]
  EC50 of cytotoxicity, long hinge CAR: 2.2 pM

B13: anti-CLL1 (1075.7) Fab bivalent switch C + D (Fab)
light: ENVLTQSPAIMSASPGEKVTMTCRASSNVISSYVHWYQQRSGASPKLWIYSTSNLASGVPARFSGSGSGTSYSLTISSVEAEDAATYYCQQYSGYPLTFGAGTKLELKRAAAAPSVFIFPPSDEQLKSGTASVVCLLNNFYPREAKVQWKVDNALQSGNSQESVTEQDSKDSTYSLSSTLTLSKADYEKHKVYACEVTHQGLSSPVTKSFNRGECGGGGSNYHLENEVARLKKL
heavy: DIQLQESGPGLVKPSQSLSLTCSVTGYSITSAYYWNWIRQFPGNKLEWMGYISYDGRNNYNPSLKNRISITRDTSKNQFFLKLNSVTTEDTATYYCAKEGDYDVGNYYAMDYWGQGTSVTVSSARTKGPSVFPLAPSSKSTSGGTAALGCLVKDYFPEPVTVSWNSGALTSGVHTFPAVLQSSGLYSLSSVVTVPSSSLGTQTYICNVNHKPSNTKVDKKVEPKSCGGGGSNYHLENEVARLKKL
[2]
  EC50 of cytotoxicity, short hinge CAR: 1.2 pM
[3]
  EC50 of cytotoxicity, long hinge CAR: 3.1 pM

B14: Peptide 4: AAALENEVARLKKL (peptide)
peptide: AAALENEVARLKKL
[4]
  binding result: no binding (tested: 10^3 nM)
